Key:
mutant GLP-1R = conditions: cited from earlier work
[1] = molecular target: GLP-1R endogenously expressed in the rat pancreatic INS-1E β-cell line (rat (endogenous in INS-1E)) (UniProt P32301)
Chain of GLP-1R endogenously expressed in the rat pancreatic INS-1E β-cell line (rat (endogenous in INS-1E)) (P32301 22-463): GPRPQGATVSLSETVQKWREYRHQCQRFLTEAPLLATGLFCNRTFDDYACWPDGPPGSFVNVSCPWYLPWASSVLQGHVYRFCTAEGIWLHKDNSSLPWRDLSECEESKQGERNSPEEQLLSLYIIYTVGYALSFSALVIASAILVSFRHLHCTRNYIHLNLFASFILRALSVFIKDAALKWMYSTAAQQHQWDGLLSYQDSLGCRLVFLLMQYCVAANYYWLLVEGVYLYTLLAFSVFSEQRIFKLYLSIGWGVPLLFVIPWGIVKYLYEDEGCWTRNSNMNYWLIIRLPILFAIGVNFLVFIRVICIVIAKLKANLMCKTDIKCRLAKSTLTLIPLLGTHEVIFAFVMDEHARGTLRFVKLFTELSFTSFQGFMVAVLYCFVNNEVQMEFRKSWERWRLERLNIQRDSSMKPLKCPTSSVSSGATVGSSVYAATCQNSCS

EC50 of peptide activity in rat INS-1E cells with 3 μM compound 3-20 (Emax 63%) [1]	EC50 of peptide activity in rat INS-1E cells with 3 μM compound 3-24 (Emax 60%) [1]	Compound	allosteric activity in GLP-1R binding site mutants (mutant GLP-1R)
		COc1ccc(Cl)c([C@@H](C)n2cnc3ccc(-c4ccccc4[C@H]4CCCCN4)cc32)c1Cl [LSN3160440]	only abolished in a triple mutant
115 nM	100 nM	GLP-1(9-36) (peptide)	

Reference: article PMC10243133 (Proceedings of the National Academy of Sciences of the …, 2023)
